# In PMC3553015 (2013):
# B1: biotin-labeled AP2µ [modified: biotin (incorporated with Transcend Biotinylated tRNA during translation); biotin (incorporated with Transcend Biotinylated tRNA during translation)] [murine] / GST-21-mer of CD79a centered on the membrane … (parent complex)
# chain 1: MIGGLFIYNHKGEVLISRVYRDDIGRNAVDAFRVNVIHARQQVRSPVTNIARTSFFHVKRSNIWLAAVTKQNVNAAMVFEFLYKMCDVMAAYFGKISEENIKNNFVLIYELLDEILDFGYPQNSETGALKTFITQQGIKSQHQTKEEQSQITSQVTGQIGWRREGIKYRRNELFLDVLESVNLLMSPQGQVLSAHVSGRVVMKSYLSGMPECKFGMNDKIVIEKQGKGTADETSKSGKQSIAIDDCTFHQCVRLSKFDSERSISFIPPDGEFELMRYRTTKDIILPFRVIPLVREVGRTKLEVKVVIKSNFKPSLLAQKIEVRIPTPLNTSGVQVICMKGKAKYKASENAIVWKIKRMAGMKESQISAEIELLPTNDKKKWARPPISMNFEVPFAPSGLKVRYLKVFEPKLNYSDHDVIKWVRYIGRSGIYETRC
# chain 2: MPDDYEDENLYEGLNLDDCSM
# B2: biotin-labeled AP2µ [modified: biotin (incorporated with Transcend Biotinylated tRNA during translation); biotin (incorporated with Transcend Biotinylated tRNA during translation)] [murine] / GST-21-mer of CD79a centered on Y193 [murine] (parent complex)
# chain 1: B1 chain 1
# chain 2: EGLNLDDCSMYEDISRGLQGT
# B3: biotin-labeled AP2µ [modified: biotin (incorporated with Transcend Biotinylated tRNA during translation); biotin (incorporated with Transcend Biotinylated tRNA during translation)] [murine] / GST-CD79a cytoplasmic domain [murine] (parent complex)
# chain 1: B1 chain 1
# chain 2: RKRWQNEKFGVDMPDDYEDENLYEGLNLDDCSMYEDISRGLQGTYQDVGNLHIGDAQLEKP
# Variants of: B1
# Assay: in vitro binding of AP2µ-btn to bead-captured GST-21-mer; parent: 81; read off a plot
row,Variant,screen value
1,chain 2 MPDDYEDENLEEGLNLDDCSM [chain 2 Y11E],~42 % of full-length CD79a
2,chain 2 MPDDYEDENLAEGLNLDDCSM [chain 2 Y11A],~41 % of full-length CD79a

# Variants of: B2
# Assay: in vitro binding of AP2µ-btn to bead-captured GST-21-mer; parent: 65; read off a plot
row,Variant,screen value
1,chain 2 EGLNLDDCSMAEDISRGLQGT [chain 2 Y11A],~50 % of full-length CD79a
2,chain 2 EGLNLDDCSMEEDISRGLQGT [chain 2 Y11E],~53 % of full-length CD79a

# Variants of: B3
# Assay: in vitro binding of AP2µ-btn to bead-captured GST fusion protein; parent: 100; read off a plot
row,percent of parent,Variant
1,~105 % of CD79a,chain 2 RKRWQNEKFGVDMPDDYEDENLYEGLNLDDCSMYEDISRGLQGTAQDVGNLHIGDAQLEKP [chain 2 Y45A]
2,~78 % of CD79a,"chain 2 RKRWQNEKFGVDMPDDYEDENLAEGLNLDDCSMAEDISRGLQGTYQDVGNLHIGDAQLEKP [chain 2 Y23A, chain 2 Y34A]"
3,~100 % of CD79a,chain 2 RKRWQNEKFGVDMPDDYEDENLYEGLNLDDCSMEEDISRGLQGTYQDVGNLHIGDAQLEKP [chain 2 Y34E]
4,~41 % of CD79a,"chain 2 RKRWQNEKFGVDMPDDYEDENLEEGLNLDDCSMYEDISRGLQGTEQDVGNLHIGDAQLEKP [chain 2 Y23E, chain 2 Y45E]"
5,~49 % of CD79a,chain 2 RKRWQNEKFGVDMPDDYEDENLEEGLNLDDCSMYEDISRGLQGTYQDVGNLHIGDAQLEKP [chain 2 Y23E]
6,~53 % of CD79a,"chain 2 RKRWQNEKFGVDMPDDYEDENLAEGLNLDDCSMAEDISRGLQGTAQDVGNLHIGDAQLEKP [chain 2 Y23A, chain 2 Y34A, chain 2 Y45A]"

# More lines, now with the values behind:
row,Variant,percent of parent
1,chain 2 RKRWQNEKFGVDMPDDYEDENLAEGLNLDDCSMYEDISRGLQGTYQDVGNLHIGDAQLEKP [chain 2 Y23A],~77 % of CD79a
2,"chain 2 RKRWQNEKFGVDMPDDYEDENLYEGLNLDDCSMAEDISRGLQGTAQDVGNLHIGDAQLEKP [chain 2 Y34A, chain 2 Y45A]",~104 % of CD79a
3,chain 2 RKRWQNEKFGVDMPDDYEDENLYEGLNLDDCSMYEDISRGLQGTEQDVGNLHIGDAQLEKP [chain 2 Y45E],~102 % of CD79a
4,"chain 2 RKRWQNEKFGVDMPDDYEDENLEEGLNLDDCSMEEDISRGLQGTYQDVGNLHIGDAQLEKP [chain 2 Y23E, chain 2 Y34E]",~58 % of CD79a
5,"chain 2 RKRWQNEKFGVDMPDDYEDENLEEGLNLDDCSMEEDISRGLQGTEQDVGNLHIGDAQLEKP [chain 2 Y23E, chain 2 Y34E, chain 2 Y45E]",~24 % of CD79a
6,"chain 2 RKRWQNEKFGVDMPDDYEDENLAEGLNLDDCSMYEDISRGLQGTAQDVGNLHIGDAQLEKP [chain 2 Y23A, chain 2 Y45A]",~50 % of CD79a
7,chain 2 RKRWQNEKFGVDMPDDYEDENLYEGLNLDDCSMAEDISRGLQGTYQDVGNLHIGDAQLEKP [chain 2 Y34A],~99 % of CD79a
8,"chain 2 RKRWQNEKFGVDMPDDYEDENLYEGLNLDDCSMEEDISRGLQGTEQDVGNLHIGDAQLEKP [chain 2 Y34E, chain 2 Y45E]",~83 % of CD79a
